# “And” between values parts separate entries of the source, which are not always exact repeats. Equal values may be shown once.
# B1: Tryptophan synthase alpha chain, P0A877 (parent)
# chain: MERYESLFAQLKERKEGAFVPFVTLGDPGIEQSLKIIDTLIEAGADALELGIPFSDPLADGPTIQNATLRAFAAGVTPAQCFEMLALIRQKHPTIPIGLLMYANLVFNKGIDEFYAQCEKVGVDSVLVADVPVEESAPFRQAALRHNVAPIFICPPNADDDLLRQIASYGRGYTYLLSRAGVTGAENRAALPLNHLVAKLKEYNAAPPLQGFGISAPDQVKAAIDAGAAGAISGSAIVKIIEQHINEPEKMLAALKVFVQPMKAATRS
# Variants of: B1
# Conditions: Escherichia coli (strain K12); pH 7.8; 25 °C; Urea; CD; Potassium phosphate 10 mM; transition: 3; structure 1WQ5; whole UniProt chain shown
Variant,ddG of mutation (higher = less stable),unfolding free energy,denaturant m value
I37A,1.41 kcal/mol and 3.01 kcal/mol,4.72 kcal/mol and 1.71 kcal/mol,–
L99A,1.69 kcal/mol and 2.38 kcal/mol,4.44 kcal/mol and 2.34 kcal/mol,2.39 kcal/mol/M and 0.94 kcal/mol/M
L127A,0.73 kcal/mol and 0.55 kcal/mol,5.4 kcal/mol and 4.17 kcal/mol,2.55 kcal/mol/M and 1.1 kcal/mol/M
L176A,2.88 kcal/mol and 1.13 kcal/mol,3.25 kcal/mol and 3.59 kcal/mol,2.16 kcal/mol/M and 1.01 kcal/mol/M
